Laboratory results reported in publication PMC11585616, “Allosteric substrate release by a sialic acid TRAP transporter substrate binding protein” (Communications Biology, 2024).
Several values for one entry are separate records, joined by “and”; a condition that tells them apart may be missing. Equal values may be shown once.

Columns and labels:
Details in all cases: both partners purified
VcSiaP [1] = molecular target: T1, VcSiaP (Vibrio cholerae O1 El Tor N16961 …, UniProt Q9KR64); experiment: SEC-MALS; Superose6 increase 10/300, room temperature, 50 mM Tris, 50 mM NaCl, pH 8.0; 120 uM of each protein
T1 construct: all residues 1-299 seen in the crystal structures; also called SiaP from V. cholerae; VcSiaPwt; not shown: His6, N-terminal, cleaved

VcSiaP [2] = molecular target: T1, VcSiaP; experiment: ITC; VHH titrated to the SBP, 25 °C, 50 mM Tris, 50 mM NaCl, pH 8.0; one set of sites model
VcSiaP [3] = molecular target: T1, VcSiaP; experiment: ITC; SiaP first loaded with Neu5Ac, then titrated with the VHH (sequential titration), 25 °C, 50 mM Tris, 50 mM NaCl, pH 8.0; competitive binding model for the wild type

T1 sequence (Q9KR64 23-321, one chain of several): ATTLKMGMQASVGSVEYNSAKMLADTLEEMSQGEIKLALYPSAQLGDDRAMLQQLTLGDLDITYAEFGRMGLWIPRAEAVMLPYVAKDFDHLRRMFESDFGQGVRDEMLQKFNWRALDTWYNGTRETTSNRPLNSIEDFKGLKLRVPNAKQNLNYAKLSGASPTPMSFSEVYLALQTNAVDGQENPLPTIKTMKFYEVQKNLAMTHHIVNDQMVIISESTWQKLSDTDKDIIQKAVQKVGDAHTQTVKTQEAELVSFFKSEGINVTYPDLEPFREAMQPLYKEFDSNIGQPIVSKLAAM

B1: VHHVcP #1 (VHH)
VHH: QVQLVESGGGLVQAGGSLRLSCAASGRTFSSSTMGWFRQAPGKEREFVAGISWSDGSTYYADSVKGRFTISRDNAKNTVYLQMNSLKPEDSAVYYCAAERWLATPQAMAVTPNALDAWGQGTQVTVSS
notes: alpaca VHH raised against VcSiaP; A second construct (pET28a, N-terminal pelB-His6-TEV, tag cleaved) was made to improve crystallization; also called Vc#1; source: E. coli WK6, periplasmic extract, purified (Ni2+-NTA, SEC); not shown: HA, C-terminal, kept; His6, C-terminal, kept
stoichiometry N (VcSiaP [1]): 1 | Kd (VcSiaP [2]): 162 nM

B2: VHHVcP #2 (VHH)
VHH: QVQLVESGGRLVQTGGSLRLSCAASGDTFSNYVMGWFRQAPGKEREFVAAISWTGANSYYADSVAGRFTISRDNAKNTVALQMNSLKPEDTAIYYCAADHFHVTHRKYDYWGQGTQVTVSS
notes: alpaca VHH raised against VcSiaP; A second construct (pET28a, N-terminal pelB-His6-TEV, tag cleaved) was made to improve crystallization; also called Vc#2; source: E. coli WK6, periplasmic extract, purified (Ni2+-NTA, SEC); not shown: HA, C-terminal, kept; His6, C-terminal, kept
stoichiometry N (VcSiaP [3]): ~1 | stoichiometry N (VcSiaP [1]): 1 | Kd (VcSiaP [2]): 13 nM and 16 nM
